Assay results reported in the supplement of paper PMC9876800.

System: peptide library, one residue held at a place counted from the S/T acceptor
Assay: relative phosphorylation of the sub-library (ratio to the mean residue at this position); higher = residue favoured
Conditions: human
Method in brief: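 Relative sub-library phosphorylation is the ratio of each sub-library's signal to the mean residue at that position. The signal came from phosphorimaging of spots on streptavidin membranes, quantified by densitometry, after purified recombinant kinases reacted with biotinylated degenerate peptide sub-libraries in 384-well plates. Reactions held 50 μM peptide and 50 μM ATP spiked with γ-32P-ATP for 90 min under kinase-specific conditions.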

CSNK1A1, construct: Full length, sequence (P48729 whole entry, looked up): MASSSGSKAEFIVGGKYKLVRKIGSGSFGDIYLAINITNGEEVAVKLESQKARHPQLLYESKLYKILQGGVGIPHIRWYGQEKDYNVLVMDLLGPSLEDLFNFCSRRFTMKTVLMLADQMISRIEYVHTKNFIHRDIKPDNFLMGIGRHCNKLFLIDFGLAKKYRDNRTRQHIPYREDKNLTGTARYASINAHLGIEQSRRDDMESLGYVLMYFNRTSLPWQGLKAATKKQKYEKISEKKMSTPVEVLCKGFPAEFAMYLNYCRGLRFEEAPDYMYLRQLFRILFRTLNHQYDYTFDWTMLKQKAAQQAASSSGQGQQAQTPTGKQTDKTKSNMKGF

CSNK1A1, construct: Full length (from UniProt P48729)
relative phosphorylation
Conditions	at +1	at +2	at +3	at +4	at -1	at -2	at -3	at -4	at -5
A fixed	0.898	1.02	1	1.11	1.24	2.02	0.811	1.17	1.13
D fixed	0.691	0.553	0.8	1.09	0.696	0.92	3.33	1.38	1.2
E fixed	1.21	0.343	0.994	0.958	1.01	1.44	3.21	1.74	1.17
F fixed	0.725	1.5	1.2	1.18	0.665	0.688	0.558	0.898	1.06
G fixed	0.869	0.952	1.76	1.1	1.08	1.04	0.749	1.11	1
H fixed	1.17	1.65	1.64	1.09	1.17	0.881	0.579	0.933	1.06
I fixed	1.59	1.27	0.695	0.869	0.671	0.81	0.625	0.754	0.829
K fixed	0.509	0.699	0.6	0.782	1.1	0.705	0.633	0.734	0.956
L fixed	1.12	0.726	0.754	0.865	0.76	0.837	0.581	0.677	0.969
M fixed	1.1	0.892	1.01	0.946	1.04	0.897	0.562	0.744	0.901
N fixed	1.15	0.742	0.776	0.737	1.24	1.09	0.831	0.915	0.824
P fixed	0.639	1.09	0.847	0.989	1.14	1.38	0.826	1.09	1.43
Q fixed	1.22	0.626	0.727	0.848	1.61	1.08	0.75	0.706	0.717
R fixed	0.59	0.632	0.552	0.628	1.04	0.824	0.746	0.74	0.768
V fixed	2.02	0.985	0.711	0.923	0.787	0.986	0.595	0.692	0.78
W fixed	0.738	1.59	1.38	1.46	0.898	0.635	0.628	1.67	1.16
Y fixed	0.771	1.73	1.55	1.44	0.839	0.763	0.987	1.04	1.04
pThr fixed	3.36	0.673	1.04	3.07	1.48	5.81	100	10.8	2.93
pTyr fixed	1.32	6.1	4.04	2.48	1.76	3.06	5.64	10.7	3.72
